Laboratory results reported in patent US20190153061A1.

Molecular target: B-cell maturation antigen (BCMA) expressed on cells (human), Q02223
Test: cell-based or functional assay

B-cell maturation antigen (BCMA) expressed on cells (human), Q02223, sequence (Q02223 whole entry): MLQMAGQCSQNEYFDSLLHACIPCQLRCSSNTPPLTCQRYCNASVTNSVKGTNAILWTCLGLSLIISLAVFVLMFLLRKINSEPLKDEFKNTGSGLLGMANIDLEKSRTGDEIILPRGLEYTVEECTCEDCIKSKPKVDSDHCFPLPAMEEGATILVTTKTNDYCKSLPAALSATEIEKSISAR

JNL binding assay, ratio to K562; K562-BCMA	JNL binding assay, ratio to K562; NCI-H929	JNL binding assay, ratio to K562; RPMI 8226	Proliferation, CD3 ratio to no target; K562-BCMA	Proliferation, CD3 ratio to no target; KMS11-luc	Proliferation, CD3 ratio to no target; NCI-H929	Proliferation, CD3 ratio to no target; RPMI 8226	Proliferation, CD4 ratio to no target; K562-BCMA	Proliferation, CD4 ratio to no target; KMS11-luc	Proliferation, CD4 ratio to no target; NCI-H929	Proliferation, CD4 ratio to no target; RPMI 8226	Proliferation, CD8 ratio to no target; K562-BCMA	Proliferation, CD8 ratio to no target; KMS11-luc	Proliferation, CD8 ratio to no target; NCI-H929	Proliferation, CD8 ratio to no target; RPMI 8226	Binder	Cell killing EC50; KMS11-luc
1.59	1.99	1.54	1.51	1.66	4.63	2.5	1.59	1.49	4.45	2.24	1.43	1.83	4.79	2.76	BCMA-9 CAR (139108) (protein) QVQLVESGGGLVKPGGSLRLSCAASGFTFSDYYMSWIRQAPGKGLEWVSYISSSGSTIYYADSVKGRFTISRDNAKNSLYLQMNSLRAEDTAVYYCARESGDGMDVWGQGTTVTVSSASGGGGSGGRASGGGGSDIQMTQSPSSLSASVGDRVTITCRASQSISSYLNWYQQKPGKAPKLLIYAASSLQSGVPSRFSGSGSGTDFTLTISSLQPEDFATYYCQQSYTLAFGQGTKVDIKTTTPAPRPPTPAPTIASQPLSLRPEACRPAAGGAVHTRGLDFACDIYIWAPLAGTCGVLLLSLVITLYCKRGRKKLLYIFKQPFMRPVQTTQEEDGCSCRFPEEEEGGCELRVKFSRSADAPAYKQGQNQLYNELNLGRREEYDVLDKRRGRDPEMGGKPRRKNPQEGLYNELQKDKMAEAYSEIGMKGERRRGKGHDGLYQGLSTATKDTYDALHMQALPPR	0.68 not printed
3.15	2.27	3.54	5.52	5.41	6.52	5.83	8.5	5.54	8.98	8.5	3.06	5.2	4.31	3.49	BCMA-4NP tool CAR (126021) (protein, not shown: a dimerising Fc or GST) QVQLVQSGAEVKKPGSSVKVSCKASGGTFSNYWMHWVRQAPGQGLEWMGATYRGHSDTYYNQKFKGRVTITADKSTSTAYMELSSLRSEDTAVYYCARGAIYNGYDVLDNWGQGTLVTVSSGGGGSGGGGSGGGGSGGGGSDIQMTQSPSSLSASVGDRVTITCSASQDISNYLNWYQQKPGKAPKLLIYYTSNLHSGVPSRFSGSGSGTDFTLTISSLQPEDFATYYCQQYRKLPWTFGQGTKLEIKR	0.12 not printed
2.81	2.65	3.31	4.12	3.42	3.86	3.93	5.73	3.97	5.07	4.84	2.65	2.83	2.73	3.03	BCMA-14 CAR (139113) (protein) EVQLVETGGGLVQPGGSLRLSCAVSGFALSNHGMSWVRRAPGKGLEWVSGIVYSGSTYYAASVKGRFTISRDNSRNTLYLQMNSLRPEDTAIYYCSAHGGESDVWGQGTTVTVSSASGGGGSGGRASGGGGSETTLTQSPATLSVSPGERATLSCRASQSVGSNLAWYQQKPGQGPRLLIYGASTRATGIPARFSGSGSGTEFTLTISSLQPEDFAVYYCQQYNDWLPVTFGQGTKVEIKTTTPAPRPPTPAPTIASQPLSLRPEACRPAAGGAVHTRGLDFACDIYIWAPLAGTCGVLLLSLVITLYCKRGRKKLLYIFKQPFMRPVQTTQEEDGCSCRFPEEEEGGCELRVKFSRSADAPAYKQGQNQLYNELNLGRREEYDVLDKRRGRDPEMGGKPRRKNPQEGLYNELQKDKMAEAYSEIGMKGERRRGKGHDGLYQGLSTATKDTYDALHMQALPPR	0.12 not printed
3.17	2.78	3.36	2.9	2.76	2.98	3.27	3.42	2.94	3.41	3.66	1.51	2.11	1.76	2.12	BCMA-12 CAR (139111) (protein) EVQLLESGGGLVQPGGSLRLSCAVSGFALSNHGMSWVRRAPGKGLEWVSGIVYSGSTYYAASVKGRFTISRDNSRNTLYLQMNSLRPEDTAIYYCSAHGGESDVWGQGTTVTVSSASGGGGSGGRASGGGGSDIVMTQTPLSLSVTPGQPASISCKSSQSLLRNDGKTPLYWYLQKAGQPPQLLIYEVSNRFSGVPDRFSGSGSGTDFTLKISRVEAEDVGAYYCMQNIQFPSFGGGTKLEIKTTTPAPRPPTPAPTIASQPLSLRPEACRPAAGGAVHTRGLDFACDIYIWAPLAGTCGVLLLSLVITLYCKRGRKKLLYIFKQPFMRPVQTTQEEDGCSCRFPEEEEGGCELRVKFSRSADAPAYKQGQNQLYNELNLGRREEYDVLDKRRGRDPEMGGKPRRKNPQEGLYNELQKDKMAEAYSEIGMKGERRRGKGHDGLYQGLSTATKDTYDALHMQALPPR	0.22 not printed
3.74	2.68	3.66	3.47	3.2	3.46	3.48	5.4	3.84	5.05	4.44	2.34	2.79	2.53	2.86	BCMA-13 CAR (139112) (protein) QVQLVESGGGLVQPGGSLRLSCAVSGFALSNHGMSWVRRAPGKGLEWVSGIVYSGSTYYAASVKGRFTISRDNSRNTLYLQMNSLRPEDTAIYYCSAHGGESDVWGQGTTVTVSSASGGGGSGGRASGGGGSDIRLTQSPSPLSASVGDRVTITCQASEDINKFLNWYHQTPGKAPKLLIYDASTLQTGVPSRFSGSGSGTDFTLTINSLQPEDIGTYYCQQYESLPLTFGGGTKVEIKTTTPAPRPPTPAPTIASQPLSLRPEACRPAAGGAVHTRGLDFACDIYIWAPLAGTCGVLLLSLVITLYCKRGRKKLLYIFKQPFMRPVQTTQEEDGCSCRFPEEEEGGCELRVKFSRSADAPAYKQGQNQLYNELNLGRREEYDVLDKRRGRDPEMGGKPRRKNPQEGLYNELQKDKMAEAYSEIGMKGERRRGKGHDGLYQGLSTATKDTYDALHMQALPPR	0.11 not printed
3.17	2.67	3.87	2.55	2.46	2.17	2.56	3.59	3.11	2.98	3.33	1.59	1.83	1.41	1.81	BCMA-8 CAR (139107) (protein) EVQLVETGGGVVQPGGSLRLSCAVSGFALSNHGMSWVRRAPGKGLEWVSGIVYSGSTYYAASVKGRFTISRDNSRNTLYLQMNSLRPEDTAIYYCSAHGGESDVWGQGTTVTVSSASGGGGSGGRASGGGGSEIVLTQSPGTLSLSPGERATLSCRASQSVGSTNLAWYQQKPGQAPRLLIYDASNRATGIPDRFSGGGSGTDFTLTISRLEPEDFAVYYCQQYGSSPPWTFGQGTKVEIKTTTPAPRPPTPAPTIASQPLSLRPEACRPAAGGAVHTRGLDFACDIYIWAPLAGTCGVLLLSLVITLYCKRGRKKLLYIFKQPFMRPVQTTQEEDGCSCRFPEEEEGGCELRVKFSRSADAPAYKQGQNQLYNELNLGRREEYDVLDKRRGRDPEMGGKPRRKNPQEGLYNELQKDKMAEAYSEIGMKGERRRGKGHDGLYQGLSTATKDTYDALHMQALPPR	0.14 not printed
2.91	2.79	3.49	3.94	3.51	4.08	3.73	4.87	3.82	4.82	4.24	1.89	2.73	2.42	2.51	BCMA-15 CAR (139114) (protein) EVQLVESGGGLVQPGGSLRLSCAVSGFALSNHGMSWVRRAPGKGLEWVSGIVYSGSTYYAASVKGRFTISRDNSRNTLYLQMNSLRPEDTAIYYCSAHGGESDVWGQGTTVTVSSASGGGGSGGRASGGGGSEIVLTQSPGTLSLSPGERATLSCRASQSIGSSSLAWYQQKPGQAPRLLMYGASSRASGIPDRFSGSGSGTDFTLTISRLEPEDFAVYYCQQYAGSPPFTFGQGTKVEIKTTTPAPRPPTPAPTIASQPLSLRPEACRPAAGGAVHTRGLDFACDIYIWAPLAGTCGVLLLSLVITLYCKRGRKKLLYIFKQPFMRPVQTTQEEDGCSCRFPEEEEGGCELRVKFSRSADAPAYKQGQNQLYNELNLGRREEYDVLDKRRGRDPEMGGKPRRKNPQEGLYNELQKDKMAEAYSEIGMKGERRRGKGHDGLYQGLSTATKDTYDALHMQALPPR	0.11 not printed
